Blank lines part the entries; values can stand above or below the substance they belong to.
Assays:
[1] = biological target: wtc51 TCRαβ (1G4 variant with four mutations in βCDR2), β-HA, in J76 cells; test: pull-down; ζ recovered with ligand-engaged TCR: (9V-A2)4-His bound to intact cells (37°C or 0°C, ± A770041), 0.5% DDM lysis, capture on HisPur cobalt resin; ζ/β2 compared with non-stimulated anti-HA pull-down (= 1)
[2] = biological target: QM-α TCRαβ (1G4 variant with mutations in αCDR2, βCDR2 and βCDR3), β-HA, in J76 cells; test: as above
[3] = biological target: 1G4 TCRαβ with βA291 (αWT, β Y291A), β-HA and α-FLAG; test: co-IP; DDM stability assay (DSA): J76 cells lysed in 0.5% DDM, 150 mM NaCl, 20 mM Tris pH 8.0, 30 min on ice; post-nuclear lysate on anti-HA agarose beads (β-HA) 1 h at 4°C; quantitative immunoblot of β (HA), ε, γ, δ, ζ; ratios normalised to WT; also after A770041 treatment of the cells
[4] = biological target: 1G4 TCRαβ wild type (HLA-A2-restricted TCR specific for NY-ESO-1 157-165), β-HA and α-FLAG; details: scale: nM
[5] = biological target: 1G4 TCRαβ with βA291 (αWT, β Y291A), β-HA and α-FLAG; details: scale: nM
[6] = biological target: 1G4 TCRαβ wild type (HLA-A2-restricted TCR specific for NY-ESO-1 157-165), β-HA and α-FLAG; test: co-IP; DDM stability assay (DSA): J76 cells lysed in 0.5% DDM, 150 mM NaCl, 20 mM Tris pH 8.0, 30 min on ice; post-nuclear lysate on anti-HA agarose beads (β-HA) 1 h at 4°C; quantitative immunoblot of β (HA), ε, γ, δ, ζ; ratios normalised to WT; also after A770041 treatment of the cells
[7] = biological target: wtc51 TCRαβ (1G4 variant with four mutations in βCDR2), β-HA, in J76 cells

Substance: CD3ε, endogenous in J76 Jurkat cells (from UniProt P07766 23-207) (natural protein)
ε/βT ratio (1G4-WT = 1) (ratio to 1G4-WT) [3]: 0.5

Substance: 6V-HLA-A2 tetramer on phycoerythrin-conjugated streptavidin (from UniProt P61769 21-119) (peptide-MHC)
pErk MFI (flow cytometry) of CD8- J76 cells against (6V-A2)4 nM, EC50 of the non-linear regression fit [4]: 19.5
pErk MFI (flow cytometry) of CD8- J76 cells against (6V-A2)4 nM, EC50 of the non-linear regression fit [5]: 19

Substance: soluble monovalent 9V-HLA-A2 (biotinylated pMHC monomer) (from UniProt P61769 21-119) (peptide-MHC)
pErk immunoblot of J76 wtc51 cells, dose response of sm-9V-A2 (Figure S7F) [7]: 3 nM

Substance: CD3δ, endogenous in J76 Jurkat cells (from UniProt P04234 22-171) (natural protein)
reduction of recovery against 1G4-WT [3]: 10%

Now from value to substance:

ζ/β2 ratio of liganded against unliganded TCR (= 1) (ratio to unliganded wtc51) [1]: 0.5
reduction of the ζ/β2 ratio of liganded against unliganded TCR [2]: 40%
ζ/β2 ratio (1G4-WT = 1) (ratio to 1G4-WT) [3]: 0.2
Substance: CD3ζ (ζζ), endogenous in J76 Jurkat cells (from UniProt P20963-1 22-164) (natural protein)

ζ/β2 ratio (ζWT = 1) [6]: 0.05 ratio to ζWT
Substance: CD3ζ I38A expressed in J76-1G4WT-ζKO cells (from UniProt P20963-1 22-164) (natural protein)

ζ/β2 ratio (ζWT = 1) [6]: 0.25 ratio to ζWT
Substance: CD3ζ I41A expressed in J76-1G4WT-ζKO cells (from UniProt P20963-1 22-164) (natural protein)

reduction of recovery against 1G4-WT [3]: 40%
Substance: CD3γ, endogenous in J76 Jurkat cells (from UniProt P09693 23-182) (natural protein)

From paper PMC8293630
